Experimental data published in patent publication US20070225231A1.
Like-named read-outs stand apart in the source and are kept apart here. Positions of bridges follow the written chain, without caps; N, C: chain ends. No end group written: not given here.

What was measured:
[1] = biological target: peroxidase-anti-peroxidase (PAP) immune complexes (UniProt P00433); assay: reverse ELISA: rabbit PAP pre-incubated with soluble MBP; competitor: immobilised MBP
human C1q (human) [2] = biological target: human C1q (human) (UniProt P02745); assay: reverse ELISA: PAP on C1q-coated plate, no inhibitor
Sequence of human C1q (human) (P02745 23-245 limits assumed, chain 1 of 3): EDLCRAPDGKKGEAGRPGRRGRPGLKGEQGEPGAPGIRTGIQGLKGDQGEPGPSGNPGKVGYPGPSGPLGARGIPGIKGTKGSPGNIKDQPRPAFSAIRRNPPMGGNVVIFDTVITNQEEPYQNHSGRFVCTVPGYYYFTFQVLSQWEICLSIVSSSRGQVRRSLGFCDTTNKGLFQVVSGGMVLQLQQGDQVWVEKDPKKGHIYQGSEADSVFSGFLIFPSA
Sequence of human C1q (human) (P02746 28-253 limits assumed, chain 2 of 3, further chain): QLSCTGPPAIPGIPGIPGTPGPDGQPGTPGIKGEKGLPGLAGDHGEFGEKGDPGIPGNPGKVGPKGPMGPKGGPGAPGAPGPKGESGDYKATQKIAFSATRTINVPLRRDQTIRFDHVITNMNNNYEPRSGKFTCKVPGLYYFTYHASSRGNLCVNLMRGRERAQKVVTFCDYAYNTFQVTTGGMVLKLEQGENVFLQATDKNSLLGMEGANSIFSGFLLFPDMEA
Sequence of human C1q (human) (P02747 29-245 limits assumed, chain 3 of 3, further chain): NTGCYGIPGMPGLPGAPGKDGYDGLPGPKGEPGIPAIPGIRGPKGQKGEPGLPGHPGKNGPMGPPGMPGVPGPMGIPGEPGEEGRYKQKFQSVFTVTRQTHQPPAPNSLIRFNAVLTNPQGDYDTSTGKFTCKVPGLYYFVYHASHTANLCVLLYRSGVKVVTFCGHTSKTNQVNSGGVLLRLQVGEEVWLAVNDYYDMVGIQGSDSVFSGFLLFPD

histone (Sigma) [3] = assay: reverse ELISA: rabbit PAP on histone-coated plate, no inhibitor
highly purified FcγIII = assay: reverse ELISA: PAP on FcγIII-coated plate, no inhibitor
highly purified FcγIIa = highly purified FcγIIa (UniProt P12318); assay: reverse ELISA: PAP on FcγIIa-coated plate, no inhibitor
Sequence of highly purified FcγIIa (P12318 34-217 limits assumed): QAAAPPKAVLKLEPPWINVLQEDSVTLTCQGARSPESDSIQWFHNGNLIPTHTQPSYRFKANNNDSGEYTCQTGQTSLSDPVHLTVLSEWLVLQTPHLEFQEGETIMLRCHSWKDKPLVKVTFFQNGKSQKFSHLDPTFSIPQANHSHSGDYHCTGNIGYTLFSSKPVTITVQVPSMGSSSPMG

highly purified FcγIIb = highly purified FcγIIb (UniProt P31994); assay: reverse ELISA: PAP on FcγIIb-coated plate, no inhibitor
Sequence of highly purified FcγIIb (P31994 43-217 limits assumed): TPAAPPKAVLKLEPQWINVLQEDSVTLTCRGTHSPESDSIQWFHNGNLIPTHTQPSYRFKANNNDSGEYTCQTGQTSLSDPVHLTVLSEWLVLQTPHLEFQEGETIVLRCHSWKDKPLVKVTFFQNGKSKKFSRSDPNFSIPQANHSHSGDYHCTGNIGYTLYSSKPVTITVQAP

histone (Sigma) [4] = assay: reverse ELISA: IgG PAP binding to histones, no inhibitor
[5] = biological target: myelin basic protein (MBP) (Sigma); assay: reverse ELISA: IgG PAP binding to MBP, no inhibitor
human C1q (human) [6] = biological target: human C1q (human) (UniProt P02745); assay: reverse ELISA: PAP on C1q-coated plate, no inhibitor; remark: listed apart in the source
[7] = biological target: whole human IgG4 (human) [IgG part: P01861]; assay: reverse ELISA: immune complexes on IgG4-coated plate, no inhibitor
Sequence of whole human IgG4 (human) [IgG part: P01861] (P01861 other isoform, or with tags, fused parts or gaps): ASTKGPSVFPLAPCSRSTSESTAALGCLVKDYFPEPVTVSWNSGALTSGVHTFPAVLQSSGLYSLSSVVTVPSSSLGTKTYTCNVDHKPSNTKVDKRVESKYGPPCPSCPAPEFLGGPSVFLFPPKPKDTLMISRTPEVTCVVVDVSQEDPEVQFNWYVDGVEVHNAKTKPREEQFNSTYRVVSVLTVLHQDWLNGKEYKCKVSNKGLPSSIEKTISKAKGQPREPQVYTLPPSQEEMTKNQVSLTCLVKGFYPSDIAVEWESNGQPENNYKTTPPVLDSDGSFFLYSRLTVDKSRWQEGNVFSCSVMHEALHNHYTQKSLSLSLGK

[8] = biological target: myelin basic protein (MBP) (Sigma); assay: reverse ELISA: rabbit PAP on MBP-coated plate, no inhibitor
[9] = biological target: peroxidase-anti-peroxidase (PAP) immune complexes (UniProt P00433); assay: reverse ELISA: rabbit PAP pre-incubated with soluble histone; competitor: immobilised histone
[10] = biological target: human monomeric IgG (Research Diagnostics); assay: RF test kit: peptide pre-incubated with human monomeric IgG, washed, then RF; competitor: RF
[11] = biological target: peroxidase-anti-peroxidase (PAP) immune complexes (UniProt P00433); assay: reverse ELISA: PAP pre-incubated with peptide; competitor: immobilised FcγIIb
[12] = biological target: peroxidase-anti-peroxidase (PAP) immune complexes (UniProt P00433); assay: reverse ELISA: PAP pre-incubated with peptide; competitor: immobilised FcγIIa
[13] = biological target: peroxidase-anti-peroxidase (PAP) immune complexes (UniProt P00433); assay: reverse ELISA: PAP pre-incubated with peptide; competitor: immobilised C1q
[14] = biological target: peroxidase-anti-peroxidase (PAP) immune complexes (UniProt P00433); assay: reverse ELISA: PAP pre-incubated with peptide; competitor: immobilised FcγIII
[15] = biological target: peroxidase-anti-peroxidase (PAP) immune complexes (UniProt P00433); assay: reverse ELISA: rabbit PAP pre-incubated with peptide; competitor: immobilised RF
[16] = biological target: peroxidase-anti-peroxidase (PAP) immune complexes (UniProt P00433); assay: reverse ELISA: PAP pre-incubated with peptide, then on C1q-coated plate; competitor: immobilised C1q
[17] = biological target: peroxidase-anti-peroxidase (PAP) immune complexes (UniProt P00433); assay: reverse ELISA: rabbit PAP pre-incubated with peptide; competitor: immobilised histone
[18] = biological target: peroxidase-anti-peroxidase (PAP) immune complexes (UniProt P00433); assay: reverse ELISA: rabbit PAP pre-incubated with peptide; competitor: immobilised MBP
[19] = biological target: peroxidase-anti-peroxidase (PAP) immune complexes (UniProt P00433); assay: reverse ELISA: immune complexes with peptide; competitor: immobilised IgG4
[20] = biological target: peroxidase-anti-peroxidase (PAP) immune complexes (UniProt P00433); assay: reverse ELISA: PAP pre-incubated with peptide; competitor: immobilised RF

Sequence of peroxidase-anti-peroxidase (PAP) immune complexes (UniProt P00433) (P00433 31-338, one chain of several): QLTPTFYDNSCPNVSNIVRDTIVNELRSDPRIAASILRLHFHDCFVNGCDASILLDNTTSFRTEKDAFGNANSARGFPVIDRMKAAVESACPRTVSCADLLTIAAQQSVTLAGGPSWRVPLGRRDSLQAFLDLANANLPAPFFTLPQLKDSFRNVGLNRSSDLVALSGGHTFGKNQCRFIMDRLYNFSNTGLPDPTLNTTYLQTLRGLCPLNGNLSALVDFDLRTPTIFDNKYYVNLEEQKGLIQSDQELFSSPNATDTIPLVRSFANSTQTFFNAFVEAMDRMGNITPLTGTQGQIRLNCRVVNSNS

| Molecule | OD 405 nm [10] [OD] | OD 450 nm [11] [OD] | OD 450 nm [12] [OD] | OD 405 nm [16] [OD] | OD 450 nm [14] [OD] | OD 405 nm [17] [OD] | OD 405 nm [18] [OD] | OD 405 nm [19] [OD] | OD 405 nm [20] [OD] | also measured |
| --- | --- | --- | --- | --- | --- | --- | --- | --- | --- | --- |
| myelin basic protein (MBP) (Sigma) | – | – | – | – | – | – | – | – | – | OD 405 nm [1]: 0.139 OD |
| peroxidase-anti-peroxidase (PAP) immune complexes (from UniProt P00433 31-338) | – | – | – | – | – | – | – | – | – | OD 405 nm (human C1q (human) [2]): 2.35 OD; OD 405 nm (histone (Sigma) [3]): 1.27 OD; OD 405 nm (highly purified FcγIII): 1.59 OD; OD 450 nm (highly purified FcγIII): 3.6 OD; OD 405 nm (highly purified FcγIIa): 1.6 OD; OD 450 nm (highly purified FcγIIa): 3.6 OD; OD 405 nm (highly purified FcγIIb): 1.39 OD; OD 450 nm (highly purified FcγIIb): 3.6 OD; OD 405 nm (histone (Sigma) [4]): 2.11 OD; OD 405 nm [5]: 2.34 OD; OD 405 nm (human C1q (human) [6]): 0.467 OD; OD 405 nm [7]: 0.716 OD; OD 405 nm [8]: 1.03 OD |
| histone (Sigma) | – | – | – | – | – | – | – | – | – | OD 405 nm [9]: 0.057 OD |
| DCAFHLGELVWCT (cyclized by a disulfide bond between the two cysteine residues) [… (SEQ ID NO:3)] | 0.962 | – | – | – | – | – | – | – | – | OD 405 nm [11]: 0.51 OD; OD 405 nm [12]: 0.66 OD; OD 405 nm [13]: 0.859 OD; OD 405 nm [14]: 0.81 OD; OD 405 nm [15]: 0.267 OD |
| DCAAHLGELAACT (cyclized by a disulfide bond between the two cysteine residues) [… (SEQ ID NO:40)] | 1.42 | 2.26 | 2.43 | 0.458 | 2.41 | – | – | – | – | – |
| DCAWHLGELAACT (cyclized by a disulfide bond between the two cysteine residues) [… (SEQ ID NO:42)] | 1.4 | 1.07 | 1.48 | – | 1.34 | 0.729 | 0.706 | 0.557 | 0.622 | – |
| PCARHLGELVWCT (disulfide 2-12 (inferred)) [… (SEQ ID NO:41)] | 1.32 | 1.21 | 1.15 | 0.205 | 1.6 | 0.444 | 0.489 | 0.129 | 0.106 | – |
| RCARHLGELVWCT (disulfide 2-12 (inferred)) [… (SEQ ID NO:5)] | 1.31 | 3.28 | 3.4 | 0.247 | 3.5 | 0.359 | 0.569 | 0.191 | 0.152 | – |
| DCARHLGELVWCT (disulfide 2-12 (inferred)) [… (SEQ ID NO:4)] | 1.23 | 1.95 | 2.54 | 0.193 | 2.53 | 0.363 | 0.473 | 0.096 | 0.109 | – |
| APPDCARHLGELVWCT (cyclized by a disulfide bond between the two cysteine residues) [… (printed in Table 8 with SEQ ID NO:14)] | – | – | – | – | – | – | – | 0.107 | – | – |
